Test results reported in publication PMC9791688, “Bioluminescence Goes Dark: Boosting the Performance of Bioluminescent Sensor Proteins Using Complementation Inhibitors” (ACS Sensors, 2022).

Target: T1, LgBiT (C-terminal GTTSA linker and Strep-tag (WSHPQFEK) omitted)
T1 chain: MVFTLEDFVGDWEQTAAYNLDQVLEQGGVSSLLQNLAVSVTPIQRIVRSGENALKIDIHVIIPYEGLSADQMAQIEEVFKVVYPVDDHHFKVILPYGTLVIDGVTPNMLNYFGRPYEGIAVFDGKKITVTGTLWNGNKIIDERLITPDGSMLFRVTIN
Experiment: split reporter (BiFC, NanoBiT); competition: DarkBiT101 titrated to 75 pM SmBiT86 and 0.75 nM LgBiT, loss of luminescence; 1x PBS, 0.02% Tween20, 4 °C for 16 h before addition of 1:1000 NanoGlo
Details: both partners purified

A Ki of 2600 ± 400 nM was found for VTGYALFEKES [DarkBiT101 peptide] in this work.
